{
  "source": "paper PMC5847570",
  "about": "“Structural model of human dUTPase in complex with a novel proteinaceous inhibitor”",
  "molecules": {"B1": {"name": "interR 43 bp (dsDNA)", "DNA 1": "ATGTTGAAATAAATATCTCGATGTGAGATAATTTGTTCGAGGA", "DNA 2": "TCCTCGAACAAATTATCTCACATCGAGATATTTATTTCAACAT"}},
  "key": {"[1]": {"biological_target": "human deoxyuridine 5′-triphosphate nucleotidohydrolase (dUTPase), nuclear isoform (human)"}, "[2]": {"biological_target": "human deoxyuridine 5′-triphosphate nucleotidohydrolase (dUTPase), nuclear isoform (human)", "assay": "SAXS; batch measurements of hDUT (0.2-2.0 mg/mL) and of Stl (0.2-0.9 mg/mL) alone; 50 mM HEPES pH 7.5, 300 mM NaCl, 5 mM MgCl2; 20 °C in the text, 283 K in Table 1"}, "[3]": {"biological_target": "human deoxyuridine 5′-triphosphate nucleotidohydrolase (dUTPase), nuclear isoform (human)", "assay": "native MS; ESI-QTOF, positive mode; 5 mM NH4HCO3 pH 7.5; hDUT, Stl or both at ca. 0.5 µM monomer"}, "[4]": {"biological_target": "Staphylococcal repressor protein Stl_(SaPIBov1) (Staphylococcus aureus) (UniProt Q9F0J8)", "assay": "native MS; ESI-QTOF, positive mode; 5 mM NH4HCO3 pH 7.5; hDUT, Stl or both at ca. 0.5 µM monomer"}, "[5]": {"biological_target": "Staphylococcal repressor protein Stl_(SaPIBov1) (Staphylococcus aureus) (UniProt Q9F0J8)", "assay": "ITC; Stl in the cell, hDUT in the syringe; 20 °C; 20 mM HEPES pH 7.5, 300 mM NaCl, 5 mM MgCl2, 1 mM TCEP; one set of independent sites; mean and SD of three measurements; concentrations of protomers; apparent affinity"}, "[6]": {"biological_target": "human deoxyuridine 5′-triphosphate nucleotidohydrolase (dUTPase), nuclear isoform (human)", "assay": "SEC-SAXS; hDUT:Stl complex (100 µL at ~8 mg/ml) on an S200 Increase 10/300 column in 50 mM HEPES pH 7.5, 300 mM NaCl, 5 mM MgCl2, in line with SAXS; two regions of the peak analysed"}, "[7]": {"biological_target": "Staphylococcal repressor protein Stl_(SaPIBov1) (Staphylococcus aureus) (UniProt Q9F0J8)", "assay": "SEC-SAXS; hDUT:Stl complex (100 µL at ~8 mg/ml) on an S200 Increase 10/300 column in 50 mM HEPES pH 7.5, 300 mM NaCl, 5 mM MgCl2, in line with SAXS; two regions of the peak analysed"}, "Stl (StlSaPIBov1)": {"biological_target": "Stl (StlSaPIBov1) (Staphylococcus aureus pathogenicity …, UniProt Q9F0J8 1-267)", "assay": "EMSA; no hDUT; 100 mM NaCl; […]; binding buffer pH not stated", "conditions": "protein: recombinant; tags: GST-tag cleaved by thrombin, His-tag removed; N-terminal vector-derived extension remains; chain copies: 2; blunt"}},
  "data": [
    {"molecule": "Staphylococcal repressor protein Stl_(SaPIBov1) (from UniProt Q9F0J8 1-267) (natural protein)", "values": [
      {"measurement": "maximal inhibition of hDUT catalytic activity by Stl", "setting": "[1]", "value": 70, "unit": "%"}
    ]},
    {"molecule": "human deoxyuridine 5′-triphosphate nucleotidohydrolase (dUTPase), nuclear isoform (enzyme)", "values": [
      {"measurement": "stoichiometry N", "setting": "[2]", "value": 3},
      {"measurement": "stoichiometry N", "setting": "[3]", "value": 3},
      {"measurement": "stoichiometry N (hDUT:Stl (3:2))", "setting": "[4]", "value": 1.5},
      {"measurement": "Kd", "setting": "[5]", "value": 230, "unit": "nM"},
      {"measurement": "stoichiometry N (hDUT protomer per Stl protomer)", "setting": "[5]", "value": 1.27},
      {"measurement": "stoichiometry N", "setting": "[6]", "value": 3},
      {"measurement": "stoichiometry N (hDUT:Stl (3:2, region 2))", "setting": "[7]", "value": 1.5},
      {"measurement": "stoichiometry N (hDUT:Stl (3:3, region 1))", "setting": "[7]", "value": 1}
    ]},
    {"molecule": "B1", "values": [
      {"measurement": "binding result", "setting": "Stl (StlSaPIBov1)", "value": "binds"}
    ]}
  ]
}
